Experimental data from US20040052799A1, “Nucleic acid and amino acid sequences relating to Helicobacter pylori for diagnostics and therapeutics” (Astra Aktiebolag, priority 1996, published 2004).

Key:
[1] = target: T1, H. pylori KDO-8-P synthase (Helicobacter pylori, UniProt Q9ZN55); experiment: KDO-8-P synthase Assay 2, Pi release, molybdate-malachite green; type: biochemical; parameters: unit not given here; conditions: 25° C., 0.3 mM Ara5P, 0.3 mM PEP, 1.28 ug/ml enzyme
T1 construct: histidine tag; made in house
Description: Because of the potential interference of test compounds on the assay at 232 nm, a method was developed to measure the amount of Pi released in the reaction (Lanzatta et al. 1979).
This assay ws performed in a 96 well ELISA place, 50 ul assay mixtures containing 0,1 M Tris-acetate (pH 7.5), 0.3 mM Ara5P and 0.3 mM PEP, and 1.28 ug/ml of KDO-8-P synthase were incubated at 25° C. for different times. The reaction was then quenched with the addition of the molybdate-malachite green reagent. […] Under those conditions, the activity measured was 0.734-moles/min/mg protein, which was similar to the rate that was measured with the 232 nm assay.
When assayed in the presence of 0.02% Brij 35, the reaction proceeded faster. Under those conditions, the activity increased up to 1 mole/min mg protein.

[2] = target: T1, H. pylori KDO-8-P synthase; experiment: Long term storage stability of KDO-8-P synthase
Description: The long term storage stability of the enzyme was tested over several conditions. […] Enzyme stored in 50% glycerol appeared to have less activity during extended storage at −20° C. (FIG. 9).

[3] = target: T1, H. pylori KDO-8-P synthase; experiment: KDO-8-P synthase Assay 1, PEP utilization at 232 nm; type: biochemical; conditions: room temperature, 0.3 mM Ara5P, 0.3 mM PEP, pH 7.5
Description: The enzyme reaction was performed in a final volume of […] containing 0.3 mM Ara5P, 0.3 mM PEP and 0.1 M Tris-acetate pH 7.5. Reactions were started with […] of purified enzyme and were followed spectrophotometrically at 232 nm for 15 minutes. As a control, the mixture minus enzyme was measured. No decrease in the absorbance at 232 nm was observed when no enzyme was added. […] An extinction coefficient of 2840 M cm^−1 of PEP, was used to estimate that at room temperature, the activity of the enzyme was 0.7-mole/min/mg protein.

B1: KDO-8-P synthase: recombinant H. pylori KDO-8-P synthase, histidine-tagged fusion protein (SEQ ID NO: 6945) (protein, listed as Helicobacter pylori)
chain: MKTSNTKTPKPVLIAGPCVIESLENLRSIAIKLQPLANNERLDFYFKASFDKANRTSLESYRGPGLEKGLEMLQTIKDEFGYKILTDVHESYQASVAAKVADILQIPAFLCRQTDLIVEVSQTNAIVNIKKGQFMNPKDMQYSVLKALKTRDSSIQSPTYETALKNGVWLCERGSSFGYGNLVVDMRSLKIMREFAPVIFDATHSVQMPGGANGKSSGDSSFPPILPRAAAAVGIDGLFAETHIDPKNALSDGANMLKPDELEHLVTDMLKIQNLF
modifications: His tag; misc_feature (B) LOCATION 1...276; hypothetical: YES
Q: Which activity measured [1] does the source give for B1 here?
A: 0.734

Q: What about the activity after storage ([2]; 50 mM phosphate pH 8.0 and 1 mM PEP, −20° C., at least three weeks) of the same molecule?
A: no loss of activity

Q: And the activity after storage ([2]; 50% glycerol, extended storage at −20° C., FIG. 9)?
A: less activity

Q: And the “activity of the enzyme” value [3]?
A: 0.7 mole/min/mg protein
